# Source: paper PMC8844116
# B1: Flag-RAGE wild type (LV-Flag-RAGE-wt, wild-type ctRAGE) [mouse] / mitogen-activated protein kinase kinase 3 (MKK3), endogenous in mouse hippocampus and HT22 cells [mouse (endogenous in hippocampus and in HT22)] (parent)
# chain 1: GQNITARIGEPLVLSCKGAPKKPPQQLEWKLNTGRTEAWKVLSPQGGPWDSVARILPNGSLLLPATGIVDEGTFRCRATNRRGKEVKSNYRVRVYQIPGKPEIVDPASELTASVPNKVGTCVSEGSYPAGTLSWHLDGKLLIPDGKETLVKEETRRHPETGLFTLRSELTVIPTQGGTHPTFSCSFSLGLPRRRPLNTAPIQLRVREPGPPEGIQLLVEPEGGIVAPGGTVTLTCAISAQPPPQVHWIKDGAPLPLAPSPVLLLPEVGHEDEGTYSCVATHPSHGPQESPPVSIRVTETGDEGPAEGSVGESGLGTLALALGILGGLGVVALLVGAILWRKRQPRREERKAPESQEDEEERAELNQSEEAEMPENGAGGP
# chain 2: MESPAASPPASLPQTKGKSKRKKDLRISCVSKPPVSNPTPPRNLDSRTFITIGDRNFEVEADDLVTISELGRGAYGVVEKVRHAQSGTIMAVKRIRATVNTQEQKRLLMDLDINMRTVDCFYTVTFYGALFREGDVWICMELMDTSLDKFYRKVLEKNMKIPEDILGEIAVSIVRALEHLHSKLSVIHRDVKPSNVLINKEGHVKMCDFGISGYLVDSVAKTMDAGCKPYMAPERINPELNQKGYNVKSDVWSLGITMIEMAILRFPYESWGTPFQQLKQVVEEPSPQLPADQFSPEFVDFTSQCLRKNPAERMSYLELMEHPFFTLHKTKKTDIAAFVKEILGEDS
# Variants of: B1
# Assay: co-immunoprecipitation (IP: Flag-RAGE, IB: MKK3), optical density of blot
# Conditions: with mitogen-activated protein kinase kinase 3 (MKK3), HT22 cells with RAGE-shRNA knockdown, high glucose, n = 3, parent: 6, read off a plot
row,response (fold change to HG + RAGE-shRNA group),Variant
1,1.6,chain 1 GQNITARIGEPLVLSCKGAPKKPPQQLEWKLNTGRTEAWKVLSPQGGPWDSVARILPNGSLLLPATGIVDEGTFRCRATNRRGKEVKSNYRVRVYQIPGKPEIVDPASELTASVPNKVGTCVSEGSYPAGTLSWHLDGKLLIPDGKETLVKEETRRHPETGLFTLRSELTVIPTQGGTHPTFSCSFSLGLPRRRPLNTAPIQLRVREPGPPEGIQLLVEPEGGIVAPGGTVTLTCAISAQPPPQVHWIKDGAPLPLAPSPVLLLPEVGHEDEGTYSCVATHPSHGPQESPPVSIRVTETGDEGPAEGSVGESGLGTLALALGILGGLGVVALLVGAILWAAAAPRREERKAPESQEDEEERAELNQSEEAEMPENGAGGP [chain 1 R340A K341A R342A Q343A]

# Same assay, conditions: with mitogen-activated protein kinase kinase 3 (MKK3), hippocampus of db/db mice with LV-RAGE-shRNA, n = 3, parent: 3, read off a plot
row,response (fold change to db/db + RAGE-shRNA group),Variant
1,1.4,chain 1 GQNITARIGEPLVLSCKGAPKKPPQQLEWKLNTGRTEAWKVLSPQGGPWDSVARILPNGSLLLPATGIVDEGTFRCRATNRRGKEVKSNYRVRVYQIPGKPEIVDPASELTASVPNKVGTCVSEGSYPAGTLSWHLDGKLLIPDGKETLVKEETRRHPETGLFTLRSELTVIPTQGGTHPTFSCSFSLGLPRRRPLNTAPIQLRVREPGPPEGIQLLVEPEGGIVAPGGTVTLTCAISAQPPPQVHWIKDGAPLPLAPSPVLLLPEVGHEDEGTYSCVATHPSHGPQESPPVSIRVTETGDEGPAEGSVGESGLGTLALALGILGGLGVVALLVGAILWAAAAPRREERKAPESQEDEEERAELNQSEEAEMPENGAGGP [chain 1 R340A K341A R342A Q343A]

# Variants of: B1
# Assay: co-immunoprecipitation (IP: MKK3, IB: Flag-RAGE), optical density of blot
# Conditions: with mitogen-activated protein kinase kinase 3 (MKK3), HT22 cells with RAGE-shRNA knockdown, high glucose, n = 3, parent: 6.8, read off a plot
row,response (fold change to HG + RAGE-shRNA group),Variant
1,1.8,chain 1 GQNITARIGEPLVLSCKGAPKKPPQQLEWKLNTGRTEAWKVLSPQGGPWDSVARILPNGSLLLPATGIVDEGTFRCRATNRRGKEVKSNYRVRVYQIPGKPEIVDPASELTASVPNKVGTCVSEGSYPAGTLSWHLDGKLLIPDGKETLVKEETRRHPETGLFTLRSELTVIPTQGGTHPTFSCSFSLGLPRRRPLNTAPIQLRVREPGPPEGIQLLVEPEGGIVAPGGTVTLTCAISAQPPPQVHWIKDGAPLPLAPSPVLLLPEVGHEDEGTYSCVATHPSHGPQESPPVSIRVTETGDEGPAEGSVGESGLGTLALALGILGGLGVVALLVGAILWAAAAPRREERKAPESQEDEEERAELNQSEEAEMPENGAGGP [chain 1 R340A K341A R342A Q343A]

# Same assay, conditions: with mitogen-activated protein kinase kinase 3 (MKK3), hippocampus of db/db mice with LV-RAGE-shRNA, n = 3, parent: 3.4, read off a plot
row,response (fold change to db/db + RAGE-shRNA group),Variant
1,1.9,chain 1 GQNITARIGEPLVLSCKGAPKKPPQQLEWKLNTGRTEAWKVLSPQGGPWDSVARILPNGSLLLPATGIVDEGTFRCRATNRRGKEVKSNYRVRVYQIPGKPEIVDPASELTASVPNKVGTCVSEGSYPAGTLSWHLDGKLLIPDGKETLVKEETRRHPETGLFTLRSELTVIPTQGGTHPTFSCSFSLGLPRRRPLNTAPIQLRVREPGPPEGIQLLVEPEGGIVAPGGTVTLTCAISAQPPPQVHWIKDGAPLPLAPSPVLLLPEVGHEDEGTYSCVATHPSHGPQESPPVSIRVTETGDEGPAEGSVGESGLGTLALALGILGGLGVVALLVGAILWAAAAPRREERKAPESQEDEEERAELNQSEEAEMPENGAGGP [chain 1 R340A K341A R342A Q343A]
